The data set deals with the molecule itself. As to the kind of experiment: SEC; untagged proteins after on-column TEV cleavage, Superdex 200-HR, 50 mM Tris/HCl pH 8.0, 100 mM NaCl, 2 mM MgCl2, 0.3 mL/min; calibrated with marker proteins. (SEC sorts molecules by how far they enter the pores of the column.)

B1: untagged human Fhit (natural protein)
chain: not shown
notes: Fhit (fragile histidine triad), human, 147 amino acids, ~17 kDa; also called fragile histidine triad
Take B1: the “stoichiometry N” value was 2.

A word on the stoichiometry N: it is a count of units in the complex or per binding partner.

The values are drawn from article PMC9913352, “The Rosetta Stone Hypothesis-Based Interaction of the Tumor Suppressor Proteins Nit1 and Fhit” (Cells, 2023).
